From US7122624B2, “Parathyroid hormone receptor ligands” (The United States of America as represented by the …, priority 1999, dated 2006)

What was measured:
rat PTH2 receptor = target: T1, rat PTH2 receptor (Rattus norvegicus, UniProt P70555); test: cAMP accumulation in COS-7 cells transiently expressing the rat PTH2 receptor; type: cell-based
T1 construct: expressed in transfected cells; host or cells: COS-7 (transient)
Protocol: To express rat PTH2 receptor in cell culture, a rat hypothalamus cDNA library was prepared in the vector CDM7 amp as described. […] A clone was isolated from a single positive pool by colony hybridization using the same ^32P labeled probe.
(§1) Cell culture supplies were obtained from Life Technologies (Frederick, Md.) except for fetal bovine serum which was from Sigma (St. Louis, Mo.).
(§2) The constructs containing the cDNA sequences of the human PTH2 receptor and β-galactosidase have been previously described.
(§3) All peptides were purchased from either Bachem (Torrance, Calif.) or Peninsula Laboratories (Belmont, Calif.). The letters ‘b,’ ‘r’ and ‘h’ designate the peptide sequence as bovine, rat and human, respectively. […] [α-^32P]dCTP was purchased from ICN Biomedicals (Costa Mesa, Calif.). Bovine hypothalamic extract was prepared by acid extraction, gel-filtration and reverse-phase HPLC as previously described. […] Antagonist inhibitory potency was examined by measuring the concentration-dependence of rPTH(1–34)-stimulated cAMP accumulation in the presence and absence of antagonist.
(§4) Statistical comparison of two sample means was evaluated using the two-tailed Student's t-test. […] Antagonist inhibitory potency was quantified using the pA2, value, the negative logarithm of the concentration of antagonist that produces a two-fold decrease of agonist EC50. This was calculated using the following equation: pA2=((EC50/EC50′)−1)−log [antagonist]

human PTH2 receptor = target: T2, human PTH2 receptor (Homo sapiens, UniProt P49190); test: cAMP accumulation in COS-7 cells transiently expressing the human PTH2 receptor; type: cell-based; details: COS-7
T2 construct: expressed in transfected cells; host or cells: COS-7 (transient)
T2 sequence (P49190 25-550): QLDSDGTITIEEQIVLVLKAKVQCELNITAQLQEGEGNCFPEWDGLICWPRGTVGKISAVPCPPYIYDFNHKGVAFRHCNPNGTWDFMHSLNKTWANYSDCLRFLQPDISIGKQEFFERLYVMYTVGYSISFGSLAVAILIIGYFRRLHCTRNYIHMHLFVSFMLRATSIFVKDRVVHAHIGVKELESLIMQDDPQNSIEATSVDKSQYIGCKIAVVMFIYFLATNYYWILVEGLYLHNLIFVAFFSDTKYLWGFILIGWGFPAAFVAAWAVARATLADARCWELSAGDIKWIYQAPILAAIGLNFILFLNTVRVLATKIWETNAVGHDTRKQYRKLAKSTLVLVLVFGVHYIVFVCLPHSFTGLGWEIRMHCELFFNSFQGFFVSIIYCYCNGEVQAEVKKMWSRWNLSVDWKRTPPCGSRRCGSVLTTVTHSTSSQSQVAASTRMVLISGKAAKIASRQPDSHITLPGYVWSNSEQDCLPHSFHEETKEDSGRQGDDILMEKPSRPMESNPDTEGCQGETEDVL
Excerpt: as §1, §2, §3, §4

T1 sequence (P70555 25-546): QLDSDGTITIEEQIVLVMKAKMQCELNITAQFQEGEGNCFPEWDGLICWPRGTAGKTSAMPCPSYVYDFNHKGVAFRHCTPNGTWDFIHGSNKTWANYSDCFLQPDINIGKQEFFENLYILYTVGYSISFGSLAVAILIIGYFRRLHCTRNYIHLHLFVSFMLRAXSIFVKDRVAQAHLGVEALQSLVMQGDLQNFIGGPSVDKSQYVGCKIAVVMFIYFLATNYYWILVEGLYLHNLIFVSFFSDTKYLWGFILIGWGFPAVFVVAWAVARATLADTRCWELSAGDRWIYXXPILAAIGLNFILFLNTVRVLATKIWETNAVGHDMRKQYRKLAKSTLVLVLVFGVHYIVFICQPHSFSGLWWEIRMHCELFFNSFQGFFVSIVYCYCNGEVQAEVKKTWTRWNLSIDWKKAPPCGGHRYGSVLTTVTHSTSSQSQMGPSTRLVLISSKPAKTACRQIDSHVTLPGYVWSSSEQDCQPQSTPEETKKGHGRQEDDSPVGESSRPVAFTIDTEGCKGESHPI

EC50 (rat PTH2 receptor; activation of adenylyl cyclase, COS-7, figures in brackets): 19 nM
−logEC50 (rat PTH2 receptor; activation of adenylyl cyclase, COS-7, mean ± s.e.m. of three or four experiments): 7.72 ± 0.12
Emax, % of response of rPTH2r to 3 μM rPTH(1-34) (rat PTH2 receptor; intrinsic activity, COS-7): 97 ± 5%
Emax, % of response of hPTH2r to 1 μM hPTH(1-34) (rat PTH2 receptor; rat receptor response relative to human PTH2 receptor response measured in parallel): 28 ± 4%
EC50 (human PTH2 receptor; activation of adenylyl cyclase, figures in brackets): 0.58 nM
−logEC50 (human PTH2 receptor; activation of adenylyl cyclase, mean ± s.e.m. of three or four experiments): 9.24 ± 0.05
Emax, % of response to 1 μM hPTH(1-34) (human PTH2 receptor; intrinsic activity): 98 ± 4%
B1: rPTH(1-84): rat full-length parathyroid hormone (1–84), purchased (peptide)
peptide: AVSEIQLMHNLGKHLASVERMQWLRKKLQDVHNFVSLGVQMAAREGSYQRPTKKEENVLVDGNSKSLGEGDKADVDVLVKAKSQ
